The term Kd denotes the concentration at which binding is half-saturated.

Drawing on patent publication US20190382504A1 (EUREKA THERAPEUTICS, published 2019), this text covers binding result, MFI and Kd for 14 molecules.

The target in one experiment is T1, Bio-C9V mutant.
T1 construct: also called biotinylated ESO157 C9V/HLA-A*02:01 complex monomer
Nature of the experiment: phage ELISA: streptavidin plate coated with biotinylated peptide/HLA-A*02:01 monomer, phage detected with HRP-conjugated anti-M13 antibody, absorbance at 450 nm. (In an ELISA, binding on a coated surface is turned into a signal by an enzyme label.)

The target in experiment [1] is ESO157 A4 peptide (…)/HLA-A*02:01 complex on T2 cells (human). Nature of the experiment: FACS, peptide-pulsed T2 cells. For orientation: In flow cytometry, cells or beads pass a laser one at a time.
Experiment [2] addresses ESO157 A7 peptide (…)/HLA-A*02:01 complex on T2 cells (human). Nature of the experiment: FACS, peptide-pulsed T2 cells.
Experiment [3] concerns the target ESO157 A1 peptide (…)/HLA-A*02:01 complex on T2 cells (human). Nature of the experiment: FACS, peptide-pulsed T2 cells.
Experiment [4] deals with ESO157 A5 peptide (…)/HLA-A*02:01 complex on T2 cells (human). Kind of experiment: FACS, peptide-pulsed T2 cells.
The target of experiment [5] is T2, HLA-A*02:01 on T2 cells without peptide loading (human).
T2 construct: TAP-deficient T2 cells, no peptide added; also called No peptide; T2 cells with no peptide loaded
Kind of experiment: FACS, peptide-pulsed T2 cells.

Experiment [6] addresses ESO157 A3 peptide (…)/HLA-A*02:01 complex on T2 cells (human). Kind of experiment: FACS, peptide-pulsed T2 cells.
Experiment [7] concerns the target ESO157 A8 peptide (…)/HLA-A*02:01 complex on T2 cells (human). Nature of the experiment: FACS, peptide-pulsed T2 cells.
Experiment [8] concerns the target T3, ESO157 wild type peptide (…)/HLA-A*02:01 complex on cells (human).
T3 construct: also called ESO157-loaded T2 cells
Nature of the experiment: FACS, peptide-pulsed T2 cells.

In experiment [9] the target is T4, ESO157 homolog 5 peptide (…)/HLA-A*02:01 on T2 cells (human).
T4 construct: also called ESO157 H5
Kind of experiment: FACS, phage on T2 cells, 50 ug/ml peptide.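 Note: binding of phage clones to peptide/MHC complexes detected by flow cytometry after staining with an anti-M13 antibody.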

In experiment [10] the target is T5, ESO157 homolog 2 peptide (…)/HLA-A*02:01 on T2 cells (human).
T5 construct: also called ESO157 H2
Kind of experiment: FACS, phage on T2 cells, 50 ug/ml peptide.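 Note: binding of phage clones to peptide/MHC complexes detected by flow cytometry after staining with an anti-M13 antibody.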

In experiment [11] the target is T6, ESO157 homolog 1 peptide (…)/HLA-A*02:01 on T2 cells (human).
T6 construct: also called ESO157 H1
Nature of the experiment: FACS, phage on T2 cells, 50 ug/ml peptide.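 Note: binding of phage clones to peptide/MHC complexes detected by flow cytometry after staining with an anti-M13 antibody.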

For experiment [12], the target named is T7, ESO157 homolog 4 peptide (…)/HLA-A*02:01 on T2 cells (human).
T7 construct: also called ESO157 H4
Nature of the experiment: FACS, phage on T2 cells, 50 ug/ml peptide.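 Note: binding of phage clones to peptide/MHC complexes detected by flow cytometry after staining with an anti-M13 antibody.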

Experiment [13] deals with T8, ESO157 homolog 3 peptide (…)/HLA-A*02:01 on T2 cells (human).
T8 construct: also called ESO157 H3
Nature of the experiment: FACS, phage on T2 cells, 50 ug/ml peptide.

Experiment [14] concerns the target ESO157 A6 peptide (…)/HLA-A*02:01 complex on T2 cells (human). Nature of the experiment: FACS, peptide-pulsed T2 cells.
Experiment [15] addresses biotinylated recombinant ESO157/HLA-A*02:02 complex (human). Nature of the experiment: BLI (Octet QK), biotinylated pMHC on streptavidin sensor, BsAb 10 ug/mL.
Experiment [16] deals with biotinylated recombinant ESO157/HLA-A*02:06 complex (human). The experiment is described as above.

Where a chain is given by its changes, count along the chain named.

B1: phage clone #146, anti-ESO157/HLA-A*02:01 scFv displayed on phage (scFv, V domains shown)
VH: EVQLVQSGAEVKKPGASVKVSCKVSGYTLTDLPMHWVRQAPGKGLEWMGGFDPEDGEIIYAQKFQGRVTMTEDTFTDTAYVELSSLRSEDTAVYYCARYVPYVSYSDSWGQGTLVTVSS
VL: not shown
On to B1, for which the binding result with Bio-C9V mutant was “binds”. Further, the MFI is 3200 in experiment [1]; 333 in [2]; 9300 in [3]; 180 in experiment [4]; 132 in experiment [5]; 181 in [6]. In [7], this molecule registered an MFI of 18600.

B2: phage clone #35, anti-ESO157/HLA-A*02:01 scFv displayed on phage (scFv, V domains shown)
VH: QVQLVQSGAEVKKPGSSVKVSCKASGDTFSSYSISWVRQAPGQGLEWMGRIIPILGIANYAQKYQGRVTLSADKSTSTSYMELNSLRSEDTAVYYCARDWSYSIDYWGQGTLVTVSS
VL: QSVVTQPPSVSAAPGQKVTISCSGSSSNIGNNYVSWYQQLPGTAPKLLIYDNNKRPSGIPDRFSGSKSGTSATLGITGLQTGDEADYYCGTWDSSLSAWVFGGGTKLTVLG
notes: also called parental phage clone #35
For B2, the MFI in [1] stood at 155; in experiment [2], 419; in [3] it was 42400; in experiment [4], 163; in experiment [6], 10200; in experiment [8], 17500. The MFI was found to be 13.4 in experiment [9] and 17.6 in [10].

B3: phage clone 35-20, affinity maturation variant of clone #35 (scFv, V domains shown)
VH: B2 VH with Q3H, S33Y
VL: QSVVTQPPSVSAAPGQKVTISCSGSSSNIGNNYVSWYQQLPGTAPKLLIYDNNKRPSGIPDRFSGSKSGTSATLGITGLQTGDEADYYCGTWDSSLSAWVFGGGTKLTVL
For B3, the MFI in [11] amounted to 21; in experiment [9], 19; in [12], 20.6; in experiment [13] it was 20.8.

B4: phage clone 35-16, affinity maturation variant of clone #35 (scFv, V domains shown)
VH: B2 VH with G26E, S33Y, I54T
VL: B2 VL with D61G
Take B4: the MFI in experiment [9] worked out at 18.7; in experiment [12], 19.3; in experiment [13], 18.7.

B5: phage clone 35-3, affinity maturation variant of clone #35 (scFv, V domains shown)
VH: B2 VH with S33Y, D99E
VL: B2 VL with Q80R
For B5, the MFI in experiment [11] came to 18.8; in experiment [9], 18.5; in experiment [10], 18.4; in [12], 19; in experiment [13] it was 18.9.

B6: phage clone 35-19, affinity maturation variant of clone #35 (scFv, V domains shown)
VH: B2 VH with V2E, S33Y
VL: B2 VL with S26I, K54M
notes: also called variant 35-19
With B6, the MFI in experiment [11] amounted to 20.7; in [9], 60.2; in experiment [10], 21.9; in [12] it was 21.6; in [13] it was 21.7.

B7: phage clone 35-14, affinity maturation variant of clone #35 (scFv, V domains shown)
VH: B2 VH with S33Y, D99E
VL: B3 VL with K46E
B7: the MFI in experiment [11] turned out to be 20.8; in experiment [9], 18.8; in experiment [10], 19.8; in experiment [12], 19.5; in experiment [13] it was 20.

B8: phage clone 35-8, affinity maturation variant of clone #35 (scFv, V domains shown)
VH: B2 VH with Q3P, S33Y, S85N
VL: B3 VL
Turning to B8, the figures for the MFI in experiment [9], in experiment [10] and in experiment [12] were 17.8, 18.7 and 19.6, respectively.

B9: phage clone 35-15, affinity maturation variant of clone #35 (scFv, V domains shown)
VH: B2 VH with S33Y, R87S, R98L
VL: B2 VL with G65A, G82R
For the molecule B9, the MFI in experiment [11] is 36.2; in experiment [9], 31.8; in experiment [12] it was 33.8; in [13], 35.4.

B10: phage clone 35-2, affinity maturation variant of clone #35 (scFv, V domains shown)
VH: B2 VH with S33Y
VL: B2 VL with K54E
As to B10, the MFI in [9] came out at 18.8; in [10], 20.8; in experiment [12], 21.

B11: phage clone 35-12, affinity maturation variant of clone #35 (scFv, V domains shown)
VH: B2 VH with Q3P, K19R, S31N
VL: B2 VL with A72T
For B11, the MFI in experiment [11] worked out at 19.3; in experiment [9], 17.7; in experiment [10], 19.2; in [12], 18.7; in [13], 18.6.

B12: phage clone #148, anti-ESO157/HLA-A*02:01 scFv displayed on phage (scFv, V domains shown)
VH: EVQLVQSGAEVKKPGASVKVSCKASGGTFSSYAISWVRQAPGQGLEWMGGIIPIFGTANYAQKFQGRVTITADKSTSTAYMELSSLRSEDTAVYYCARSYWSWTPYDPWGQGTLVTVSS
VL: LPVLTQPPSVSVAPGKTARITCGGNNIGSKSVHWYQQKPGQAPVLVIYYDSDRPSGIPERFSGSNSGNTATLTISRVEAGDEADYYCQVWDSSSDHYVFGTGTKVTVLG
Regarding B12, in the experiment with Bio-C9V mutant, the binding result is “binds”. Also, the MFI in experiment [1] was determined as 240; in [2], 62400; in experiment [3], 27700; in experiment [4] it was 14200; in experiment [14] it was 17500; in [5], 208. For the same molecule, the MFI in experiment [6] was 52900; in experiment [7] it was 58300.

B13: ESO157 BsAb #116 (anti-ESO157/HLA-A*02:01 scFv x anti-human CD3epsilon scFv, single chain) (bispecific antibody)
chain: QSVLTQPPSVSAAPGQKVTISCSGSSSNIGNNYVSWYQQLPGTAPKLLIYDNNKRPSGIPDRFSGSKSGTSATLGITGLQTGDEADYYCGTWDSSLSAEVFGTGTKVTVLGSRGGGGSGGGGSGGGGSLEMAQVQLVQSGPEVKKPGASMKVSCKASGYTFTKYGISWVRQAPGQGLEWMGWISADSGKTSYAQNLQGRVSLTIDTSTATAYMELRSLRSDDTAVYYCARDDDSWGQGTLVTVSS
With B13, the results for the Kd in experiment [15] and in [16] were 1.8 nM and 0.8 nM, respectively.

B14: phage clone #76, anti-ESO157/HLA-A*02:01 scFv displayed on phage (scFv, V domains shown)
VH: EVQLVQSGAEVKKPGSSVKVSCKASGGTFSSYAISWVRQAPGQGLEWMGGIIPIFGTANYAQKFQGRVTITADESTSTAYMELSSLRSEDTAVYYCARYDSYVYDEWGQGTLVTVSS
VL: QSVVTQPPSLSGAPGQRVTISCNGSGSNIGAGYDVHWYQQLPGTAPKLLIYGNSNRPSGVPDRFSGSKSGTSASLAITGLQAEDEADYYCQSYDSSLSGWGIFGGGTKLTVLG
Turning to B14, the binding result in the experiment with Bio-C9V mutant is “binds”. Besides, the MFI in experiment [1] is 191; in experiment [2] it was 6200; in experiment [3], 14600; in [4] it was 160; in [5], 131; in experiment [6], 42900. Further, the figures for the MFI in [7] and in experiment [8] were 12700 and 7460, respectively.
